Results published in patent US20150259430A1 (MAB DISCOVERY, published 2015).
Changes are numbered by the printed parent chain. Blank lines part the entries; values can stand above or below the binder they belong to.

Legend:
[1] = target: T1, recombinant Fc chimeric conjugate of human HER3 (human, UniProt P21860 20-643); experiment: ELISA, coated antigen
T1 construct: extracellular domain; Coated on the ELISA plate
Method: (§1) Microtiter plates were coated with a) c-Met, IGF-1R, EGFR, HER2, and/or HER3 protein or b) EGFR, HER2, and/or HER3 (recombinant Fc chimeric conjugates of human c-Met, IGF-1R, EGFR, HER2, HER3 or IL12 Rβ1). After a blocking process, specific antibodies from B-cell supernatants bind to the targets and are then detected by a POD-labeled anti-rabbit IgG antibody. The IL12R binding was used as a counter-screen.
(§2) 12.5 μL 0.5 μg/mL protein in PBS was transferred to a microtiter plate incubated and washed 3× with Wash Buffer. 90 μL Block Buffer was added to each well, incubated and washed. 12.5 μL Standard Antibody (Anti-EGF-Receptor; HER2 Rabbit anti-Human Monoclonal (extracellular domain) (SP3) Antibody; HER3 (N-terminal) antibody; start concentration 2 μg/ml; IL-12Rbeta1 antibody start concentration 500 ng/ml) in 1:2 dilutions or sample diluted in ELISA buffer was added, incubated and washed. 12.5 μl 1:5000 POD-Antibody (Anti-rabbit IgG, peroxidase-linked species-specific Fab2 fragment (from donkey) (ECL); assay dilution: 1:5000) in Elisa Buffer was added, incubated and washed. 15 μl TMB was added and 15 μl HCl was added after sufficient development. Absorbance (Optical Density O.D.) was read at 450 nm/620 nm.

[2] = target: T2, recombinant Fc chimeric conjugate of human HER2 (human, UniProt P04626 23-652); experiment: ELISA, coated antigen
T2 construct: extracellular domain; Coated on the ELISA plate
Method: as §1, §2

T1 sequence (P21860 20-643, change not shown): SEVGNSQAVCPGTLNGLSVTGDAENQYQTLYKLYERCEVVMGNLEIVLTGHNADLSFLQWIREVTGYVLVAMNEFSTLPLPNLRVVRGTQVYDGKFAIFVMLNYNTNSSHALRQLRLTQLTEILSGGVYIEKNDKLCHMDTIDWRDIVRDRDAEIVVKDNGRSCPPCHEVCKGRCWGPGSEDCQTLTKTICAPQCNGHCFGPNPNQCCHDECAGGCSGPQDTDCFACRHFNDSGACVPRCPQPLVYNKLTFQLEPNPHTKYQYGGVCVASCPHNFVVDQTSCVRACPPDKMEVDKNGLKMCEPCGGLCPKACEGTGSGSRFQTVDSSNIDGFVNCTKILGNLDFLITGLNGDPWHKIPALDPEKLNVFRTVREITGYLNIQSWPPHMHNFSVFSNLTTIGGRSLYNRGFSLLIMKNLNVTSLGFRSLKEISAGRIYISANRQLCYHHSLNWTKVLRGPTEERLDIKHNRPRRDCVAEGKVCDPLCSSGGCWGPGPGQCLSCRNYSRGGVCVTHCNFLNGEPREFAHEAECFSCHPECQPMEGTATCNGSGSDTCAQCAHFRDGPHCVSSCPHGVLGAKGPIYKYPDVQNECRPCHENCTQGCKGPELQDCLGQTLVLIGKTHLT

B1: Antibody 15 (antibody, V domains shown)
VH: QSVEESGGRLVTPGTPLTLTCTVSGFSLNSHAMSWVRQAPGKGLEWIGIISSSGSAWYATWVKGRFTISKTSTTVDLKMTSLTTEDTATYFCARDSAMVPSNFNLWGQGTLVTVSS
VL: AIEMTQSPPSLSASVGETVRIRCLASEFLFNAVSWYQQKPGKPPTLLISGASNLESGVPPRFSGSGSGTDYTLTIGGVQAEDVATYYCLGDFSGGADLTFGAGTKVEIK
notes: rabbit IgG in B-cell supernatant
binding result [1]: no binding (tested: OD 0.1 or lower)

B2: Antibody 34 (antibody, V domains shown)
VH: QEQLVESGGGLVQPEGSLTLTCKASGFSFSSGYYMCWVRQAPGKGLEWIACIYADSSESTYYASWAKGRFTISKTSSTTVTLQVTSLTAADTATYFCARWGTVAGYSTFNLWGPGTLVTVSS
VL: DVVMTQTPASVSEPVGGTVTIKCQASQSISTALAWYQQKPGQPPKLLIYFTSTLASGVSSRFKGSGSGAEFTLTISDLECADAATYYCQGYYYVTNFPFGGGTEVVVK
notes: as for B1
binding result [1]: no binding (tested: OD 0.1 or lower)

B3: Antibody 21 (antibody, V domains shown)
VH: QEHLEESGGGLVKPPGSLTLTCTASGFSFSSTYYICWVRQAPGKGLEWIGCIYAGSGTTYYASWAKGRFTISKTSSTTVTLQMASLTAADTATYFCARSSDSWTYGMDLWGPGTLVTVSS
VL: DIVMTQTPASVSEPVGGTVTIKCQASQSISSYLAWYQQKPGQPPKRLIYKASTLASGVPSRFKGSGSGTDFTLTISDLECADAATYYCQCTYGNTGSNFFYGFGGGTEVVVK
notes: as for B1
binding result [1]: no binding (tested: OD 0.1 or lower)

B4: Antibody 52 (antibody, V domains shown)
VH: QSVEESGGRLVTPGTALTLTCTVSGFSLSSGDMSWVRQAPGKGLEWIGYIWSGVSTYYANWAKGRFTISKTSSTTVDLKMTSLTIEDTATYFCARVDFYSYVYSLWGPGTLVTVSS
VL: ALVMTQTPASVEAAVGGTVTIKCQASQSISSCLAWYQQKPGQPPKLLIYSASTLASGVPSRFKGSGSGTEYTLTISGVECADAATYYCQQHYTSNNIDNAFGGGTEVVVK
notes: as for B1
binding result [2]: no binding (tested: OD 0.1 or lower)

B5: Antibody 55 (antibody, V domains shown)
VH: QSLEESGGRLVTPGGSLTLTCTVSGSDISSYDMSWVRQAPGKGLEWIGYIWSGTTIYYASWPKGRFTISKTSSTTVDLKMTSLTTEDTATYFCAAINIYTYVYSLWGPGTLVTVSS
VL: AYDMTQTPASVEAAVGGTVTIKCQASESIYSSLAWYQQKSGQPPKLLIYLASTLASGVPSRFKGSGSGTDYTLTISGVECADAATYYCQQHYSGSNVDNAFGGGTEVVVK
notes: as for B1
binding result [2]: no binding (tested: OD 0.1 or lower)

B6: Antibody 56 (antibody, V domains shown)
VH: QSLEESGGRLVTPGTPLTLTCTASGFSLSSYDLSWVRQAPGKGLEWIAYIWSGDKTYYANWAKGRFTISKTSSTTVDLKMTSLTTEDTATYFCATVNIYSYVYSLWGPGTLVTVSS
VL: B5 VL with A13V, E27Q, Y30S, S31T, S32A, D70E, G94S, S95N
notes: as for B1
binding result [2]: no binding (tested: OD 0.1 or lower)

B7: Antibody 53 (antibody, V domains shown)
VH: B5 VH with S30T, M33A, T55K, I56T, P62A, A95T, I96V, I98T
VL: B5 VL with A13V, E27Q, Y30S, D70E, S93T, G94A, S95L
notes: as for B1
binding result [2]: no binding (tested: OD 0.1 or lower)

B8: Antibody 9 (antibody, V domains shown)
VH: QEQLEESGEGLVKPGTPLTLTCTASGFSLSSGDMSWVRQAPGKGLEWIGTIGVDGSTDYANWAEGRFTISRTSTTVDLKMTSPTTEDTATYFCARGLFDDYTFNLWGQGTLVTVSS
VL: AYDMTQTPASVEVAVGGTVTIKCQASQNIYTYLSWYQQKPGQPPKLLIYKTSTLASGVPSRFSGSGSGTEYTLTVSGVQCDDAATYYCQQGYTTSSNVATPFGGGTEVVVK
notes: as for B1
binding result [1]: no binding (tested: OD 0.1 or lower)

B9: Antibody 28 (antibody, V domains shown)
VH: QEQLEESGGDLVKPGASLTLTCKVSGFSLTSGYYMCWVRQAPGKGLEWLACIYTGSSGRTYYASWAKGRFTISKTSSTTVTLQMTSLTAADTATFFCARELYLSSVLWGPGTLVTVSS
VL: DVVMTQTPASVSEPVGGTVTIKCQASQSISSSYLSWYQQKPGQPPKLLIYRASTLESGVPSRFKGSGSGTEFTLTISDLECADAATYYCQCTDYAGSYVGGAFGGGTEVVVK
notes: as for B1
binding result [2]: no binding (tested: OD 0.1 or lower)

B10: Antibody 6 (antibody, V domains shown)
VH: QSVEESGGRLVTPGTPLTLTCTVSGFSLSSYTMGWVRQAPGKGLEYIGIINTGGYTYYASWAKGRFTISRTSTTVDLSMTSLTTEDTATYFCARVYPGSSCDLWGQGTLVTVSS
VL: B9 VL
notes: as for B1
binding result [1]: no binding (tested: OD 0.1 or lower)

B11: Antibody 18 (antibody, V domains shown)
VH: QSVEESGGRLVTPGTPLTLTCTVSGFSLSTYWMSWVRQAPGKGLEYIGFINTGGNAYYASWAKGRFTISKTSTSVDLKITSPTTEDTATYFCAGAYVGDVGDGYALTLWGQGTLVTVSS
VL: DVVMTQTPASVSEPVGGTVTIKCQASQSIGNKLAWYQQVPGQPPKLLIYSASPLASGVSSRFKGSRSGTEYTLTISDLECADAATYYCQCTYYGSSGNAFGGGTEVVVK
notes: as for B1
binding result [1]: no binding (tested: OD 0.1 or lower)

Further lines, results first:

binding result [1]: no binding (tested: OD 0.1 or lower)
B12: Antibody 78 (antibody, V domains shown)
VH: QSVEESGGRLVTPGTPLTLTCTVSGIDLSSYWMIWVRQAPGEGLEYIGFISNGGGAYYANWTKGRFTISRTSTTVDLKMTSLTTEDTATYFCARAYTTVTIGGFDLWGPGTLVTVSS
VL: AYDMTQTPASVEVAVGGTVTINCQASQNIYNGLAWYQQKPGQPPKLLIYLASTLASGVPSRFKGSGSGTEFTLTISDLECADAATYYCQQGFSVNNVGNVFGGGTEMVVK
notes: as for B1

binding result [1]: no binding (tested: OD 0.1 or lower)
B13: Antibody 72 (antibody, V domains shown)
VH: QSLEESGGRLVTPGTLLTLTCTASGIDLSGHAMAWVRQAPGKGLEWIGIIYDNGITNYPTWAKGRFTISKTSTTVELKFTSPTTEDTATYFCARDTGNGALRLTLWGPGTLVTVSS
VL: DIVMTQTPSPVSAAVGGTVTIKCQASQSIGSWLSWYQQKPGQRPKLLIYGASTLESGVPSRFKGSGSGTEFTLTISDLECADAATYYCHCTYGSVSGNAFGGGTEVVVK
notes: as for B1

binding result [2]: no binding (tested: OD 0.1 or lower)
B14: Antibody 24 (antibody, V domains shown)
VH: QSVEESGGRLVTPGTPLTLTCTVSGFSLSSNAISWVRQAPGKGLEWIGFINIYGSTYYASWAKGRFTISRTSTTVDLKMTSLTTEDTATYFCARDRTGDSPTRLDLWGQGTLVTVSS
VL: DVVMTQTPASVEAAVGGTVTIKCQASQSISSYLSWYQQKPGQPPKLLIYDASTLASGVPSRFKGSGSGTQFTLTISDLECADAATYYCQCTYGYGASSAYGNAFGGGTEMVVK
notes: as for B1

binding result [1]: no binding (tested: OD 0.1 or lower)
B15: Antibody 79 (antibody, V domains shown)
VH: QSVEESGGRLVTPGTPLTLTCTVSGFSLSSNAMSWVRQAPGKGLEWIGIINIYGSTNYASWAKGRFTISKTSSTTVDLKITSPTTEDTATYFCARDYGGVSATRLDLWGQGTLVTVSS
VL: B14 VL with S30G, T53N, A55E, S56D, Q70E, F71Y, A84V, A96I, A99S, M110V
notes: as for B1

binding result [1]: no binding (tested: OD 0.1 or lower)
B16: Antibody 45 (antibody, V domains shown)
VH: QSVEESGGRLVTPGTPLTLTCTVSGFSLSSYAMTWVRQAPGKGLEWIGIIDHSRATYYANWAKGRFTISKTSSTTVDLKVTSLTTEDTATYFCARFFNPGGSGYLRLWGQGTLVTVSS
VL: DVVMTQTPASVSEPVGGTVTIKCQASQIISNWLAWYQQKPGQPPKLLIYGASILASGVPSRFKASRSGTDYTLTIGDLECADAATYYCQCPDYSDTSLGSFGGGTEVVVR
notes: as for B1

binding result [2]: no binding (tested: OD 0.1 or lower)
B17: Antibody 32 (antibody, V domains shown)
VH: QSVEESGGRLVTPGTPLTLTCTVSGFSLSSYDMSWVRQAPGKGLEWIGFIDGDSNTYDATWAKGRFTISKTSTTVDLKITSPTTEDTATYFCTRGFNLWGQGTLVTVSS
VL: DVVMTQTPASVSEPVGGTVTIKCQASQSISSYLAWYQQKPGQPPKLLIYKASTLASGVSSRFKGSGSGTEFTLTISDLECADAATYYCQCSAGGRSGIGGFGGGTEVVVK
notes: as for B1

binding result [1]: no binding (tested: OD 0.1 or lower)
B18: Antibody 74 (antibody, V domains shown)
VH: QSVEESGGRLVTPGTPLTLTCTVSGFSLSSGYMNWVRQAPGKGLEWIGRIHTLSGSIWYASWVKGRFTISKTSTTVDLKMTSLTTKDTATYFCARGNAGGSIEYGMDLWGPGTLVTVSA
VL: AYDMTQTPASVEAAVGGTVTIKCQASESITNYLNWYQQKPGQPPKLLIYSASTLASGVPSRFKGSGSGTQFTLTISGVECADAGTYYCQQGYSLINVGDIFGGGTEVVVR
notes: as for B1

binding result [1]: no binding (tested: OD 0.1 or lower)
B19: Antibody 20 (antibody, V domains shown)
VH: QSLEESGGGLVQPEGSLTLTCTASGLDASSNCWVCWVRQAPGKGLEWIACIYAIGSGVTYYASWVNGRFSISKTSSTTVTLQMTSLTVADTATYLCARVLNGVGYIDLWGPGTLVTVSS
VL: DIVMTQTPSSVEAAVGGTVTIKCQASQSVYNNNWLAWYQQIPGQPPKLLIYESSTLASGVPSRFKGSGSGTQFTLTISDVQCDDAAMYYCQTYYYSSSRTYAFGGGTEVVVK
notes: as for B1

binding result [1]: no binding (tested: OD 0.1 or lower)
B20: Antibody 88 (antibody, V domains shown)
VH: QSVEESGGRLVTPGTPLTLTCTVSGFPLSSYVMSWVRQAPGTGLEYIGIVGIGGSAYYASWAKGRFTISRTSTTVDLKMTSLTPEDTATYFCARGAGGNFYSPLDLWGQGTLVTVSS
VL: DIVMTQTASPLSGAVGGTVTIKCQASQSISNELAWYQQKPGQRPKLLIYLASTLASGVPSRFKGSGSGTDFTLTISDLECADAATYYCQSYSDTSSISYGYGFGGGTEVVVK
notes: as for B1

binding result [1]: no binding (tested: OD 0.1 or lower)
B21: Antibody 1 (antibody, V domains shown)
VH: QSLEESGGRLVTPGTPLTLTCTASGFSLSSYAMIWVRQAPGEGLEYIGIIITGGSAYYANWAKGRFTISRTSTTVDLKMTSLTTEDTATYFCARGYSGSSGDLWGQGTLVTVSS
VL: DVVMTQTPASVSEPVGGTVTIKCQASQSISSWLSWYQQKPGQPPKLLIYGASNLASGVSSRFKGSRSGTEYTLTISDLECADAATYYCQCTDYTSKYVGAFGGGTEVLVR
notes: as for B1
